Source: article PMC6085627
Each block holds one binder with its values, some of them ahead of it.

What was measured:
[1] = biological target: human TLR4 (human), O00206; experiment: SPR; Biacore T200; rhTLR4 amine-coupled on CM5 (~800 RU); HMGB1 isoforms injected at 30 μL/min for 60 s, 25 °C, dissociation 1-2 min; HBS-EP pH 7.4; 1:1 binding supposed; apparent KD; details: remark: other sources report otherwise
[2] = biological target: human TLR4 (human), O00206; experiment: SPR; Biacore T200; TLR4 amine-coupled on CM5 (800 RU); GST-A-box (310-10,000 nM), GST-B-box (1 and 5 μM), A-box or GST injected at 30 μL/min for 60 s, 25 °C, dissociation 2 min; HBS-EP pH 7.4; 1:1 binding supposed; apparent KD
[3] = biological target: Human TLR4/MD-2 complex (human), O00206; experiment: SPR; Biacore T200; TLR4/MD-2 amine-coupled on CM5 (1100 RU); GST-A-box, GST-B-box (150-5000 nM), A-box or GST injected at 30 μL/min for 60 s, 25 °C, dissociation 1 min; HBS-EP pH 7.4; GST-A-box: association and dissociation fitted separately to a 1:1 model; GST-B-box: steady-state affinity model; apparent KD
[4] = biological target: Human TLR4 (rhTLR4) (human), O00206; experiment: SPR; TLR4/MD-2 complex or TLR4 coated on a CM5 chip; A-box protein injected as analyte (0-5 µM on TLR4/MD-2, 0-10 µM on TLR4); Biacore T200, HBS-EP buffer pH 7.4
Chain of Human TLR4 (rhTLR4) (human), O00206 (O00206 24-631): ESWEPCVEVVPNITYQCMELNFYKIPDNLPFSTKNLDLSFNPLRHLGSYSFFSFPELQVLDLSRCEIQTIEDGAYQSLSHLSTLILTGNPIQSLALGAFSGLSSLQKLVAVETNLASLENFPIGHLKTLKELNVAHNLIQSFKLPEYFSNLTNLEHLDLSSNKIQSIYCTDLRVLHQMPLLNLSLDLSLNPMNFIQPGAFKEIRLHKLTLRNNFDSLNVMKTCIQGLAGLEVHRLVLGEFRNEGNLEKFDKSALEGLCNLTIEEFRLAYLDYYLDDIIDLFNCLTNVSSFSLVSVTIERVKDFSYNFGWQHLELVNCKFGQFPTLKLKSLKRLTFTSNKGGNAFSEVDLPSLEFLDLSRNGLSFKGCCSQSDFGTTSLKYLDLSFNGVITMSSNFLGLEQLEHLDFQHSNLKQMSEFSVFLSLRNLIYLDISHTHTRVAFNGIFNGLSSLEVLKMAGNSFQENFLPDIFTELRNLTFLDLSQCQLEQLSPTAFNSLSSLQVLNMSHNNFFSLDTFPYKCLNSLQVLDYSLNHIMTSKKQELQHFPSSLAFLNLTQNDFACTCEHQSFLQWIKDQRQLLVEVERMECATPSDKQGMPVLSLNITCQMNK

[5] = biological target: Human TLR4/MD-2 complex (human), O00206; experiment: as above
Target sequence in this assay (O00206 24-631, chain 1 of 2, one chain of several): as the sequence (O00206 24-631) above

[6] = biological target: Recombinant GST-A-box; experiment: SPR; Biacore T200; GST-A-box (750 RU) or GST-B-box (1000 RU) amine-coupled on CM5; MD-2 injected (17-500 nM) at 30 μL/min for 60 s, 25 °C, dissociation 1 min; HBS-EP pH 7.4; steady-state affinity model; apparent KD
[7] = biological target: Recombinant GST-B-box; experiment: as above

Chain of human TLR4 (human), O00206 (O00206 24-631): as above

B2: DTT reduced HMGB1, P63159 1-215 (natural protein)
chain: MGKGDPKKPRGKMSSYAFFVQTCREEHKKKHPDASVNFSEFSKKCSERWKTMSAKEKGKFEDMAKADKARYEREMKTYIPPKGETKKKFKDPNAPKRPPSAFFLFCSEYRPKIKGEHPGLSIGDVAKKLGEMWNNTAADDKQPYEKKAAKLKEKYEKDIAAYRAKGKPDAAKKGVVKAEKSKKKKEEEDDEEDEEDEEEEEEEEDEDEEEDDDDE
modifications: here or on the partner: cysteines reduced with DTT (no C23-C45 disulfide)
- Kd [1]: 0.65 µM

B3: Recombinant GST-A-box (domain or fragment)
chain: PRGKMSSYAFFVQTCREEHKKKHPDASVNFSEFSKKCSERWKTMSAKEKGKFEDMAKADKARYEREMKTYI
modifications: not checked
- Kd [2]: 0.59 µM
- koff [2]: 0.013 s⁻¹
- kon [2]: 22000 M⁻¹ s⁻¹
- Kd [3]: 1.21 µM
- koff [3]: 0.037 s⁻¹
- kon [3]: 30800 M⁻¹ s⁻¹

B4: Recombinant A-box without GST tag (HMGB1 A-box domain) (domain or fragment)
chain: B3 chain
modifications: not checked
- Kd [4]: 1.03 µM
- Kd [5]: 1.55 µM

More lines, now with the values ahead:

- Kd [1]: 0.64 µM
- fold slower dissociation rate than reduced HMGB1 [1]: 2 fold
- koff [1]: 0.128 s⁻¹
B1: disulfide HMGB1 (High Mobility Group Box 1), P63159 1-215 (natural protein)
chain: B2 chain
modifications: here or on the partner: disulfide bond between C23 and C45

- Kd [6]: 3.25 µM
B5: human MD-2, Q9Y6Y9 19-160 (natural protein)
chain: QKQYWVCNSSDASISYTYCDKMQYPISINVNPCIELKRSKGLLHIFYIPRRDLKQLYFNLYITVNTMNLPKRKEVICRGSDDDYSFCRALKGETVNTTISFSFKGIKFSKGKYKCVVEAISGSPEEMLFCLEFVILHQPNSN

- Kd [7]: 1.41 µM
B6: human MD-2 (natural protein)
chain: B5 chain
